Data on 15 molecules can be found in patent US20180155451A1 (published 2018).

The target of assay [1] is T1, FcγRIIIa extracellular domain with C-terminal His tag (human, UniProt P08637 17-208).
T1 construct: extracellular domain; also called FcgRIIIa; 3a; not shown: His tag at the C terminus
Kind of assay: SPR; He/Con_3a divided by He/Con_2b (FcγRIIIa over FcγRIIb). As to the method: (§1) Analysis of interaction between objective antibody and the FcγR was carried out using Biacore T100 (GE Healthcare). HBS-EP+ (GE Healthcare) was used as the running buffer, and the measurement temperature was set to 25° C. Chips produced by immobilizing the antigen peptide by the amine coupling method to a Series S Sencor Chip CM5 (GE Healthcare), or alternatively, chips produced by allowing preliminarily biotinylated antigen peptides to interact with and immobilize onto a Series S Sensor Chip SA (certified) (GE Healthcare) were used. Antibodies of interest were captured onto an antigen peptide-immobilized chip, and allowed to interact to each FcγR diluted with running buffer. To regenerate and repeatedly use the chip, the antibodies captured on the chip were washed off by reacting 10 mM glycine-HCl, pH 1.5.
(§2) The FcγR-binding activity of each antibody was assessed primarily using as an indicator the FcγR-binding activity and dissociation constant for FcγR.

In assay [2] the target is T1, FcγRIIIa extracellular domain with …. Kind of assay: SPR (Biacore), antibody captured on antigen peptide chip, FcγR as analyte. How it is done:
as §1, §2
(Surface plasmon resonance follows binding to a sensor surface in real time, without labels.)

Assay [3] concerns the target T2, FcγRIIb extracellular domain with C-terminal His tag (human, UniProt P31994 43-217).
T2 construct: extracellular domain; Soluble receptor expressed in FreeStyle293 cells, used as analyte in Biacore; also called FcgRIIb; 2b; not shown: His tag at the C terminus
T2 sequence (looked up): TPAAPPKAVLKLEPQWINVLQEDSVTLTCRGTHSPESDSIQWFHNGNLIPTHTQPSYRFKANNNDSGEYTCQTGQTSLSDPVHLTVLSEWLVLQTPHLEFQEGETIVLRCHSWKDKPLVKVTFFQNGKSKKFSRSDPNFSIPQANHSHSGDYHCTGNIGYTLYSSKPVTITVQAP
The description is as above. As to the method: as §1, §2

Assay [4] addresses T3, FcγRIa (human, UniProt P12314 16-292).
T3 construct: extracellular domain; also called FcgRI; 1a; not shown: His tag at the C terminus
Kind of assay: SPR (Biacore), antibody captured, FcγR as analyte; binding as % of GpH7-A5/GpH7-B3/GpL16-k0.

For a further assay, the target named is T4, FcγRIIb (human, UniProt P31994 43-217).
T4 construct: extracellular domain; also called FcgRIIb; 2b; not shown: His tag at the C terminus
T4 sequence (looked up): T2 sequence (looked up)
Described as above.

For assay [5], the target named is T3, FcγRIa. In words: SPR (Biacore); He/Con_1a (FcγRIa) divided by He/Con_2b (FcγRIIb).

T3 sequence (P12314 16-292): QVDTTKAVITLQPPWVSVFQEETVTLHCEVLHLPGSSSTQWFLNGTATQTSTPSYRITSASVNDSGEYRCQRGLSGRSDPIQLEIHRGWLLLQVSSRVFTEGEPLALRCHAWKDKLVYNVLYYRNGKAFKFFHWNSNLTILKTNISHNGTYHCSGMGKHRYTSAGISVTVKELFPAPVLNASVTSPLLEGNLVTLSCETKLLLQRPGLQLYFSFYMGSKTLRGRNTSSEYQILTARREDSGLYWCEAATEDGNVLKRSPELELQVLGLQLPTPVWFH
T1 sequence (P08637 17-208): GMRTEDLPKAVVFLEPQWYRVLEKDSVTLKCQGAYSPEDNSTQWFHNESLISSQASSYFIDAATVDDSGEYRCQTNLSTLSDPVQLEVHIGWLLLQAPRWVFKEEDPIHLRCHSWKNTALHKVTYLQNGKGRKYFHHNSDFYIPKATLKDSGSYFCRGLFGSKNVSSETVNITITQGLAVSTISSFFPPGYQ

B1: GpH7-A5/GpH7-B3 variant L328_20W/GpL16-k0 (antibody, human IgG1, kappa)
heavy 1: not shown
heavy 2: not shown
light: DIVMTQSPLSLPVTPGEPASISCQASESLVHSNRNTYLHWYLQKPGQSPQLLIYKVSNRFSGVPDRFSGSGSGTDFTLKISRVEAEDVGVYYCSQNTHVPPTFGQGTKVEIERTVAAPSVFIFPPSDEQLKSGTASVVCLLNNFYPREAKVQWKVDNALQSGNSQESVTEQDSKDSTYSLSSTLTLSKADYEKHKVYACEVTHQGLSSPVTKSFNRGEC
notes: Heterodimerized anti-glypican-3 IgG1; L328W (EU) only in the GpH7-B3 chain; also called He Ab
In the case of B1, the “He_3a/2b (IIIa/IIb)” value in assay [1] stood at 0.16 ratio. Further, the He/Con_3a in assay [2] is 37.4 relative binding (GpH7-A5/GpH7-B3/GpL16-k0 = 100). The He/Con_2b in assay [3] is 235 relative binding (GpH7-A5/GpH7-B3/GpL16-k0 = 100).

B2: GpH7-A5/GpH7-B3 variant P331_16H/GpL16-k0 (antibody, human IgG1, kappa)
heavy 1: not shown
heavy 2: not shown
light: B1 light
notes: Heterodimerized anti-glypican-3 IgG1; P331H (EU) only in the GpH7-B3 chain; also called He Ab
Regarding B2, the “He_3a/2b (IIIa/IIb)” value in assay [1] is 0.69 ratio. Also, in assay [2], the He/Con_3a is 80.2 relative binding (GpH7-A5/GpH7-B3/GpL16-k0 = 100). The He/Con_2b in assay [3] is 116 relative binding (GpH7-A5/GpH7-B3/GpL16-k0 = 100).

B3: GpH7-A5/GpH7-B3 variant P331_04F/GpL16-k0 (antibody, human IgG1, kappa)
heavy 1: not shown
heavy 2: not shown
light: B1 light
notes: Heterodimerized anti-glypican-3 IgG1; P331F (EU) only in the GpH7-B3 chain; also called He Ab
On to B3, for which the “He_3a/2b (IIIa/IIb)” value in assay [1] is 0.7 ratio. Further, the He/Con_3a in assay [2] is 77.3 relative binding (GpH7-A5/GpH7-B3/GpL16-k0 = 100). Also, in assay [3], the He/Con_2b was 110 relative binding (GpH7-A5/GpH7-B3/GpL16-k0 = 100).

B4: GpH7-A5/GpH7-B3 variant P329_20W/GpL16-k0 (antibody, human IgG1, kappa)
heavy 1: not shown
heavy 2: not shown
light: B1 light
notes: Heterodimerized anti-glypican-3 IgG1; P329W (EU) only in the GpH7-B3 chain; also called He Ab
In the case of B4, in assay [1], the “He_3a/2b (IIIa/IIb)” value was 0.7 ratio. For the same molecule, in assay [2], the He/Con_3a was 31.7 relative binding (GpH7-A5/GpH7-B3/GpL16-k0 = 100). Further, the He/Con_2b in assay [3] was 45.1 relative binding (GpH7-A5/GpH7-B3/GpL16-k0 = 100).

B5: GpH7-A5/GpH7-B3 variant L328_14T/GpL16-k0 (antibody, human IgG1, kappa)
heavy 1: not shown
heavy 2: not shown
light: B1 light
notes: Heterodimerized anti-glypican-3 IgG1; L328T (EU) only in the GpH7-B3 chain; also called He Ab
As to B5, the “He_3a/2b (IIIa/IIb)” value in assay [1] was determined as 0.53 ratio. The He/Con_3a in assay [2] was 75.3 relative binding (GpH7-A5/GpH7-B3/GpL16-k0 = 100). Also, the He/Con_2b in assay [3] is 141 relative binding (GpH7-A5/GpH7-B3/GpL16-k0 = 100).

B6: GpH7-A5/GpH7-B3 variant L328_06M/GpL16-k0 (antibody, human IgG1, kappa)
heavy 1: not shown
heavy 2: not shown
light: B1 light
notes: Heterodimerized anti-glypican-3 IgG1; L328M (EU) only in the GpH7-B3 chain; also called He Ab
For B6, in assay [1], the “He_3a/2b (IIIa/IIb)” value came to 0.56 ratio. Also, the He/Con_3a in assay [2] is 78.6 relative binding (GpH7-A5/GpH7-B3/GpL16-k0 = 100). Besides, the He/Con_2b in assay [3] is 142 relative binding (GpH7-A5/GpH7-B3/GpL16-k0 = 100).

B7: GpH7-A5/GpH7-B3 variant P331_07I/GpL16-k0 (antibody, human IgG1, kappa)
heavy 1: not shown
heavy 2: not shown
light: B1 light
notes: Heterodimerized anti-glypican-3 IgG1; P331I (EU) only in the GpH7-B3 chain; also called He Ab
Turning to B7, the “He_3a/2b (IIIa/IIb)” value in assay [1] amounted to 0.58 ratio. In addition, the He/Con_3a in assay [2] is 66 relative binding (GpH7-A5/GpH7-B3/GpL16-k0 = 100). In addition, the He/Con_2b in assay [3] is 114 relative binding (GpH7-A5/GpH7-B3/GpL16-k0 = 100).

B8: GpH7-A5/GpH7-B3 variant I332_11K/GpL16-k0 (antibody, human IgG1, kappa)
heavy 1: not shown
heavy 2: not shown
light: B1 light
notes: Heterodimerized anti-glypican-3 IgG1; I332K (EU) only in the GpH7-B3 chain; also called He Ab
Regarding B8, the “He_3a/2b (IIIa/IIb)” value in assay [1] came to 0.64 ratio. Moreover, the He/Con_3a in assay [2] is 45.1 relative binding (GpH7-A5/GpH7-B3/GpL16-k0 = 100). Also, in assay [3], the He/Con_2b was 70.9 relative binding (GpH7-A5/GpH7-B3/GpL16-k0 = 100).

B9: GpH7-A5/GpH7-B3 variant L328_09D/GpL16-k0 (antibody, human IgG1, kappa)
heavy 1: not shown
heavy 2: not shown
light: B1 light
notes: Heterodimerized anti-glypican-3 IgG1; L328D (EU) only in the GpH7-B3 chain; also called He Ab
As for B9, in assay [1], the “He_3a/2b (IIIa/IIb)” value came out at 0.24 ratio. In addition, the He/Con_3a in assay [2] was 47.8 relative binding (GpH7-A5/GpH7-B3/GpL16-k0 = 100). Further, in assay [3], the He/Con_2b is 199 relative binding (GpH7-A5/GpH7-B3/GpL16-k0 = 100).

B10: GpH7-A5/GpH7-B3 variant A327_10E/GpL16-k0 (antibody, human IgG1, kappa)
heavy 1: not shown
heavy 2: not shown
light: B1 light
notes: heterodimerized IgG1; alteration in the GpH7-B3 H chain only; also called He Ab
Regarding B10, in the assay with FcγRIa [4], the He/Con_1a is 103 % of control. Besides, in the assay with FcγRIIb, the He/Con_2b was 140 % of control. For the same molecule, in the assay with FcγRIa [5], the “Ia/IIb He_1a/2b” value turned out to be 0.74 ratio.

B11: GpH7-A5/GpH7-B3 variant P331_20W/GpL16-k0 (antibody, human IgG1, kappa)
heavy 1: not shown
heavy 2: not shown
light: B1 light
notes: Heterodimerized anti-glypican-3 IgG1; P331W (EU) only in the GpH7-B3 chain; also called He Ab
Turning to B11, the “He_3a/2b (IIIa/IIb)” value in assay [1] amounted to 0.71 ratio. For the same molecule, in assay [2], the He/Con_3a was 78.6 relative binding (GpH7-A5/GpH7-B3/GpL16-k0 = 100). Besides, in assay [3], the He/Con_2b is 111 relative binding (GpH7-A5/GpH7-B3/GpL16-k0 = 100).

B12: GpH7-A5/GpH7-B3 variant P331_10E/GpL16-k0 (antibody, human IgG1, kappa)
heavy 1: not shown
heavy 2: not shown
light: B1 light
notes: Heterodimerized anti-glypican-3 IgG1; P331E (EU) only in the GpH7-B3 chain; also called He Ab
With B12, the “He_3a/2b (IIIa/IIb)” value in assay [1] is 0.65 ratio. Further, the He/Con_3a in assay [2] is 75.1 relative binding (GpH7-A5/GpH7-B3/GpL16-k0 = 100). The He/Con_2b in assay [3] was 116 relative binding (GpH7-A5/GpH7-B3/GpL16-k0 = 100).

B13: GpH7-A5/GpH7-B3 variant I332_09D/GpL16-k0 (antibody, human IgG1, kappa)
heavy 1: not shown
heavy 2: not shown
light: B1 light
notes: as for B10
As to B13, the He/Con_1a with FcγRIa [4] was 93.4 % of control. Also, the He/Con_2b with FcγRIIb is 147 % of control. The “Ia/IIb He_1a/2b” value in the assay with FcγRIa [5] was 0.64 ratio.

B14: GpH7-A5/GpH7-B3 variant L328_10E/GpL16-k0 (antibody, human IgG1, kappa)
heavy 1: not shown
heavy 2: not shown
light: B1 light
notes: Heterodimerized anti-glypican-3 IgG1; L328E (EU) only in the GpH7-B3 chain; also called He Ab
B14: in assay [1], the “He_3a/2b (IIIa/IIb)” value amounted to 0.31 ratio. Besides, the He/Con_3a in assay [2] is 53.4 relative binding (GpH7-A5/GpH7-B3/GpL16-k0 = 100). Moreover, in assay [3], the He/Con_2b is 172 relative binding (GpH7-A5/GpH7-B3/GpL16-k0 = 100).

B15: GpH7-A5/GpH7-B3 variant L328_07I/GpL16-k0 (antibody, human IgG1, kappa)
heavy 1: not shown
heavy 2: not shown
light: B1 light
notes: Heterodimerized anti-glypican-3 IgG1; L328I (EU) only in the GpH7-B3 chain; also called He Ab
As to B15, in assay [1], the “He_3a/2b (IIIa/IIb)” value is 0.52 ratio. The He/Con_3a in assay [2] was 84 relative binding (GpH7-A5/GpH7-B3/GpL16-k0 = 100). In addition, in assay [3], the He/Con_2b was 160 relative binding (GpH7-A5/GpH7-B3/GpL16-k0 = 100).
